This assay concerns the target T1, 35S-labelled luciferase (UniProt P08659 1-550 = luciferase, 35S label (in-vitro-translated)).
T1 construct: Negative control of the pull-down; also called luciferase (about 61 kDa)
Put plainly: GST pull-down, 35S-labelled luciferase.

We go through one molecule from patent publication US20080199473A1 (CLEVELAND CLINIC FOUNDATION, published 2008).

T1 sequence (P08659 whole entry): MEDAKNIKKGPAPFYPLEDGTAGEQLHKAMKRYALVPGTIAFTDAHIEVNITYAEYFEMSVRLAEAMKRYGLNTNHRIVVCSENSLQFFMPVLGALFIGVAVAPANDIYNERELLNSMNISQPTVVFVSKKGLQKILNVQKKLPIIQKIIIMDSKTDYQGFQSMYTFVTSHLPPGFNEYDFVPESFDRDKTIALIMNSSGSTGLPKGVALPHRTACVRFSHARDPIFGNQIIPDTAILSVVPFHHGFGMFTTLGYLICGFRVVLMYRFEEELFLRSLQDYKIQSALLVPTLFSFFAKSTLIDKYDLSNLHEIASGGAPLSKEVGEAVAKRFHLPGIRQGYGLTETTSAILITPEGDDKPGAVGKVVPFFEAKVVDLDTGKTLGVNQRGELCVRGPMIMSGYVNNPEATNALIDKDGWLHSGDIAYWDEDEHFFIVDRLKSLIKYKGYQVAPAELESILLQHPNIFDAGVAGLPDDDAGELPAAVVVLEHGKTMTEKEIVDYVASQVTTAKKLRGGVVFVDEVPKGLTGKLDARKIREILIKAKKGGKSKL

B1: GST-TWEAK protein (ligand, UniProt O43508 136-249, looked up)
chain: ARINSSSPLRYNRQIGEFIVTRAGLYYLYCQVHFDEGKAVYLKLDLLVDGVLALRCLEEFSATAASSLGPQLRLCQVSGLLALRPGSSLRIRTLPWAHLKAAPFLTYFGLFQVH
notes: also called GST-TWEAK fusion protein; not shown: glutathione S-transferase (GST) tag
For the molecule B1, the binding result is “no binding”.
